Molecular target: gsk3b_human GSK3B (UniProt P49841)
Sequence (P49841 whole entry, looked up): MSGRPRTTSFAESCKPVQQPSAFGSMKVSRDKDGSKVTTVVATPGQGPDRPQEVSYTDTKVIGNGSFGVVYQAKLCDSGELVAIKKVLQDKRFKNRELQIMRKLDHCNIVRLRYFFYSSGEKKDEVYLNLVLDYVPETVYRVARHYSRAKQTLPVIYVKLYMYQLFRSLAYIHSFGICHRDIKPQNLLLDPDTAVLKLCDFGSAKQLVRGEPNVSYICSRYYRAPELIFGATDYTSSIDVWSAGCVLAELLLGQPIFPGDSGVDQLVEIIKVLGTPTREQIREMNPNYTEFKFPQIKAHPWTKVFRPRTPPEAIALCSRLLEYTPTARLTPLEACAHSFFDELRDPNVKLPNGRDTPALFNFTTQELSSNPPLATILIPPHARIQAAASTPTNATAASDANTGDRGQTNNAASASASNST

Chain of Tuberin (Rattus norvegicus (Rat)), P49816 S1389A (P49816 whole entry S1389A): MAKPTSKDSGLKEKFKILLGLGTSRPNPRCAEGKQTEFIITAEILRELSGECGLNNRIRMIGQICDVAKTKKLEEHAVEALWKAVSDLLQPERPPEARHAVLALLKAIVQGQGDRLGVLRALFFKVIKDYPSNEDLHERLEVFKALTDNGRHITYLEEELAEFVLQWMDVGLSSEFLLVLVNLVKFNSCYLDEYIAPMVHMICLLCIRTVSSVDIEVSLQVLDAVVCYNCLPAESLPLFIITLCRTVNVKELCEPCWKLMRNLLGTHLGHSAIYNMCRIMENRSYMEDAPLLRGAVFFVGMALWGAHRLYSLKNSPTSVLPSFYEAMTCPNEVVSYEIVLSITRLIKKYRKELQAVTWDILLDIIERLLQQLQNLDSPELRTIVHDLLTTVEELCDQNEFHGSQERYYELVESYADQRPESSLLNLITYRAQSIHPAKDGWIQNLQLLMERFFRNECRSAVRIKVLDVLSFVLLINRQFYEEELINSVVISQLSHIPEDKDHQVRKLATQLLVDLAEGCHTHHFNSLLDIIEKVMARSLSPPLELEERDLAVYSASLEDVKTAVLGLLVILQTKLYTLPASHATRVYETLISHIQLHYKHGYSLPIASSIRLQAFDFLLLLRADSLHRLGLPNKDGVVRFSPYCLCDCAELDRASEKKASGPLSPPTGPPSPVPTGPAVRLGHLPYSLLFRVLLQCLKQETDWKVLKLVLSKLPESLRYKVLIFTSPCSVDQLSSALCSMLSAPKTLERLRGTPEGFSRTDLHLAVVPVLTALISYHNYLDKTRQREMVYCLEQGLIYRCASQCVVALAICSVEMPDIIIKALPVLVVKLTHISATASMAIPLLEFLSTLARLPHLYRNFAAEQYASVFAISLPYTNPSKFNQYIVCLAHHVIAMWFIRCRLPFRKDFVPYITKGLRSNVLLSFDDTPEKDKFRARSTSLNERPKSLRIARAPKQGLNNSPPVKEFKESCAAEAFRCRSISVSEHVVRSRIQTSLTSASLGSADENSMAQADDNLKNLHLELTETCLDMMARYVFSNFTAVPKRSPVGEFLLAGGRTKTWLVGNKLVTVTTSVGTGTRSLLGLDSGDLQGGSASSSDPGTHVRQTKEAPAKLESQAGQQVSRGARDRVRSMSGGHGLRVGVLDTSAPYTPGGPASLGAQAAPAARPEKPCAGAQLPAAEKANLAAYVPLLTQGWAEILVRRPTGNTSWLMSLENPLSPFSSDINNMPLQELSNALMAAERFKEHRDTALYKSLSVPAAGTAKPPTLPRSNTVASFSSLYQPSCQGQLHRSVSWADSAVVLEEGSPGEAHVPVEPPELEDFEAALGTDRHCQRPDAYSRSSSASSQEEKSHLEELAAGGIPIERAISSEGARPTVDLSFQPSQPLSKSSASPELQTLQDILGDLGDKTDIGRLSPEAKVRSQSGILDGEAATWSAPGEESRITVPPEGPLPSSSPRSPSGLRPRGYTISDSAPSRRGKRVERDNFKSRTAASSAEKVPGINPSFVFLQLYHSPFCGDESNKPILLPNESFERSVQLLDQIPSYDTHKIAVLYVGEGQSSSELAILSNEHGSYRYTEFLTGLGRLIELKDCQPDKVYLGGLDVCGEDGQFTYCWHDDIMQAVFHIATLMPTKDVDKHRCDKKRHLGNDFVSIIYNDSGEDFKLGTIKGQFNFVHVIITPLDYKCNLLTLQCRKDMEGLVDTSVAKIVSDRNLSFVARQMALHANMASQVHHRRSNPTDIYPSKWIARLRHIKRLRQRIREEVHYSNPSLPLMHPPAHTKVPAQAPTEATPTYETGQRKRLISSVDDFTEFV

effect of a mutation on the interaction: disrupting interaction
Substance: Tuberin (Rattus norvegicus (Rat)), P49816 S1389A

— IntAct's records for PubMed 16959574
